Measured values: paper PMC6275079

Biological target: caveolin-1 (rat (endogenous in cerebellar granule neurons)) (UniProt P41350)
Test: co-IP; anti-caveolin-1 (sc-894) on ImmunoCruz IP/WB Optima matrix; 400 µg of CGN lysate treated with 1% Triton X-100 for 30 min, incubated overnight at 4 °C, washed with Tris-buffered saline; PKA and CaMK-II detected by Western blot in precipitate and supernatant, percent by densitometry

UniProt P41350, sequence (P41350 whole entry): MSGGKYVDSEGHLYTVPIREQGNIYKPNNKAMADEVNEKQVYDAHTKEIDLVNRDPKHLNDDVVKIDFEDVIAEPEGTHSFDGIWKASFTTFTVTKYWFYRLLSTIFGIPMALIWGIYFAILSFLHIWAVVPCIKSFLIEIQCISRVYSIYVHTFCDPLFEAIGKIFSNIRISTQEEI

percentage of coimmunoprecipitation with caveolin-1 [%]	Substance
39	calmodulin-dependent protein kinase II (from UniProt P11275 1-478) (enzyme)
16	protein kinase A (from UniProt P27791 1-351) (enzyme)
